PMC8639466

Legend:
[1] = molecular target: hSSRP1-PH2 (Leu101-Thr195) (human); test: SEC; molecular weight calibration of the single protein in solution
hSSRP1-HMG520-616 = hSSRP1-HMG520-616 (Homo sapiens, UniProt Q08945 520-616); test: EMSA; EMSA: 5 uM DNA, 137 mM NaCl, 2.7 mM KCl, 10 mM Na2HPO4, 2 mM KH2PO4 pH 7.4, 30 min on ice, 12% native PAGE; single-molecule: 10 mM Tris, 20 mM EDTA, 25 mM KCl; conditions: protein: recombinant; tags: GST or His-SUMO fusion vector; GST cleaved; label: 5'-FAM on strand 1; blunt
hSSRP1-HMG520-616, sequence (Q08945 520-616): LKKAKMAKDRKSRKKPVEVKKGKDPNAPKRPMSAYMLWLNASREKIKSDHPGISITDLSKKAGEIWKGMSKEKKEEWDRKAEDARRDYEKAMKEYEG

hSSRP1-HMG546-616 = hSSRP1-HMG546-616 (Homo sapiens, UniProt Q08945 546-616); test: as above; conditions: protein: recombinant; tags: GST or His-SUMO fusion vector; GST cleaved; label: 5'-FAM on strand 1; blunt
hSSRP1-HMG546-616, sequence (Q08945 546-616): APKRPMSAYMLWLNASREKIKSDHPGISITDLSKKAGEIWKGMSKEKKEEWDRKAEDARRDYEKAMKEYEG

Row | Molecule | stoichiometry N [1] | binding result (hSSRP1-HMG520-616) | binding result (hSSRP1-HMG546-616)
1 | hSSRP1-PH2 (Leu101-Thr195) (domain or fragment) | 4 | – | –
2 | 15 bp FAM GT-rich dsDNA (dsDNA) DNA 1: GGGGTGATTGTTCAG DNA 2: CTGAACAATCACCCC | – | binds | no binding
